Data taken from the supplement of paper PMC9876800.

Tested on: peptide library, one residue held at a place counted from the S/T acceptor
Assay: relative phosphorylation of the sub-library (ratio to the mean residue at this position); higher = residue favoured
Details: human
Method in brief: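 Relative sub-library phosphorylation, a ratio to the mean residue at that position, was obtained by phosphorimaging and densitometry of spots on streptavidin membranes. Before capture, purified recombinant kinases were incubated for 90 min under kinase-specific conditions with 50 μM biotinylated degenerate peptide sub-libraries and 50 μM ATP spiked with γ-32P-ATP. Each sub-library fixed one residue at one position around a central Ser/Thr.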

Sequence of IRAK4, construct: aa104-end (Q9NWZ3 104-460, looked up): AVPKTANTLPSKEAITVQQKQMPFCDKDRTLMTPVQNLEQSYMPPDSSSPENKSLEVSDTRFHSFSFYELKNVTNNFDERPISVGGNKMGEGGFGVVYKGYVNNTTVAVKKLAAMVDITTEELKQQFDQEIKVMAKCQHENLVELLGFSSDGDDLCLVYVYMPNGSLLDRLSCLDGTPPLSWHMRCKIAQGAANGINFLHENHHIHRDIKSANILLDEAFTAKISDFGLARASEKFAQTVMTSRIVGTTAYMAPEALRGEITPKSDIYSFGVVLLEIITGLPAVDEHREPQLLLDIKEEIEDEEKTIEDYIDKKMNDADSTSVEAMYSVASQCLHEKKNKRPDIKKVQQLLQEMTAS
Sequence of DCLK1, construct: aa351-689 (O15075 351-689, looked up): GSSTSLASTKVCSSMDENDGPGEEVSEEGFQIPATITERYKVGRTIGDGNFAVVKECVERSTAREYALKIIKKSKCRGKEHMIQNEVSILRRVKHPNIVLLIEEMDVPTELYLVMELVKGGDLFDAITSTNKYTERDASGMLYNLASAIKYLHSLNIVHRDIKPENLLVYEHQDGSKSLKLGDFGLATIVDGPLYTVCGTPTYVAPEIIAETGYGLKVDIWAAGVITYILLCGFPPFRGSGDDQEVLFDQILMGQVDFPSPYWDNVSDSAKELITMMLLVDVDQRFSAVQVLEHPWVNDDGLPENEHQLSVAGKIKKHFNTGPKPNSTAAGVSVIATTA

DCLK1, construct: aa351-689 (from UniProt O15075)
relative phosphorylation
Details	at +1	at +2	at +3	at +4	at -1	at -2	at -3	at -4	at -5
A fixed	0.741	1.04	0.876	0.928	0.957	1.35	0.773	1.13	1.09
D fixed	0.495	0.579	0.771	0.814	0.62	0.651	0.307	0.553	0.468
E fixed	0.508	0.36	0.817	0.761	0.362	1.5	0.386	0.912	0.452
F fixed	2.44	1.04	0.991	1.34	0.427	0.582	0.281	0.617	1.08
G fixed	0.765	0.962	1.25	1.11	1.72	1.45	0.704	1.09	1.07
H fixed	1.01	1.39	1.38	0.944	1.33	1.12	0.979	1.15	1.01
I fixed	0.485	1.08	0.571	0.972	0.277	0.315	0.133	0.462	0.759
K fixed	1.1	0.523	1.27	1.23	2.27	1.5	3.37	2.12	1.56
L fixed	0.774	1.3	0.952	1.03	0.745	0.499	0.245	0.659	1.02
M fixed	1.53	1.48	0.66	1.26	0.797	1.06	0.415	0.947	0.938
N fixed	1.11	0.719	0.988	0.871	1.07	1.12	0.568	0.909	0.716
P fixed	0.274	0.63	0.789	1.17	1.37	0.383	0.821	1.08	1.16
Q fixed	1.13	0.626	1.16	0.925	0.958	1.75	0.771	1.04	0.907
R fixed	1.22	0.52	1.46	1.05	2.01	1.78	6.04	1.92	1.68
V fixed	0.705	1.23	0.79	0.889	0.529	0.464	0.244	0.665	0.886
W fixed	1.34	1.59	1.32	0.929	0.528	0.685	0.475	0.876	1.36
Y fixed	1.38	1.94	0.953	0.781	1.03	0.785	0.486	0.861	0.832
pThr fixed	0.78	0.776	0.779	1.2	0.322	0.357	0.407	0.688	0.712
pTyr fixed	1.01	2.9	0.913	0.688	0.585	0.497	0.391	0.683	0.813

IRAK4, construct: aa104-end (from UniProt Q9NWZ3)
relative phosphorylation
Details	at +1	at +2	at +3	at +4	at -1	at -2	at -3	at -4	at -5
A fixed	1	0.837	0.672	0.783	0.78	1.05	0.954	1.13	1.15
D fixed	0.163	0.147	0.24	0.423	0.303	0.404	0.555	0.603	0.602
E fixed	0.314	0.164	0.217	0.405	0.247	0.405	0.507	0.619	0.554
F fixed	1.05	1.27	1.4	0.77	0.886	0.903	0.885	0.97	0.895
G fixed	1.13	0.45	0.698	0.935	0.636	1.31	1.36	1.22	1.29
H fixed	1.07	1.13	1.49	1.26	1.28	1.06	1.05	1.01	1.15
I fixed	0.92	1.42	1.33	0.897	0.774	0.842	0.755	0.742	0.89
K fixed	1.94	1.43	1.56	1.89	2.3	1.23	1.53	1.46	1.52
L fixed	0.83	1.05	1.24	0.85	0.877	1.23	0.935	0.852	0.774
M fixed	1.2	1.16	1.15	1.01	1	1.57	1.03	0.907	0.837
N fixed	0.705	0.669	0.651	1.04	1	1.14	1.1	1.14	0.997
P fixed	0.139	0.406	0.252	0.961	0.666	1.04	1.11	1.12	1.22
Q fixed	1.34	0.862	0.919	0.983	0.973	0.979	0.964	0.864	0.866
R fixed	2.58	1.99	1.76	1.83	2.31	1.34	1.65	1.5	1.59
V fixed	1.08	1.47	1.18	0.778	0.942	0.811	0.775	0.891	0.812
W fixed	0.778	1	1.11	1.25	0.755	0.814	0.968	1.01	0.881
Y fixed	0.755	1.53	1.12	0.942	1.26	0.878	0.864	0.957	0.966
pThr fixed	0.276	0.274	0.341	0.33	0.352	0.678	0.866	0.752	0.87
pTyr fixed	0.203	0.177	0.441	0.323	0.276	0.545	0.65	0.539	0.763
